# Reference: US20250043290A1, “RNA SEQUENCES THAT INDUCE FLUORESCENCE OF SMALL MOLECULE FLUOROPHORES, MOLECULAR COMPLEXES, SENSORS, AND METHODS OF USE THEREOF” (CORNELL UNIVERSITY, priority 2021, published 2025)
# Assay: Fluorescence activation of DFHO by aptamers in vitro
# Assay type: biochemical
# Source text: FIG. 2A is a schematic showing the secondary structure of Squash as predicted by mFOLD (Squash: 5′-GGCUACAAGGUGAGCCCAAUAAUACGGUUUGGGUUAGGAUAGGAAGUAGAGCCGUAAACUCUCUAAGCGGUAGUC-3′ (SEQ ID NO:1)). Squash retained the main structural elements of add A-riboswitch aptamer including a 3-way junction and predicted kissing loop interactions (residues at positions 30, 31, 56, and 57, solid gray line). An additional base pair in the kissing loop between loop L2 and L3 (residues at positions 29 and 58, dotted gray line) improved fluorescence activation. […] Shown are the excitation (Ex) and emission (Em) spectra of Squash bound to DFHBI-1T and DFHO (structures shown in inset). Spectra were measured using 20 μM RNA and 2 μM of the indicated fluorogenic dye. […] Fluorescence activation was measured by incubating 200 nM dye and 10 μM RNA. By using a large excess of RNA compared to the fluorophore, it was ensured that the fluorescence observed is from 200 nM RNA-fluorophore complex. Data represent mean values±s.d. for n=3 independent experiments. The values inside the bars indicate fold activation. AU, arbitrary units. FIG. 2D is a graph showing the dissociation constant (Kd) between Squash and DFHO as measured by titration of 50 nM Squash with increasing concentration of DFHO, and fitted using a one-site saturation model. […] FIG. 2E is a bar graph showing the results of an experiment in which Squash-DFHO fluorescence was measured in buffers containing exclusively the indicated cations. […] Similar to the parental add A-riboswitch aptamer (see Lemay et al., “Folding of the Adenine Riboswitch,” Chem. Biol. 13:857-868 (2006), which is hereby incorporated by reference in its entirety), Squash-DFHO has a low magnesium requirement for fluorescence activation. […]
# FIG. 6A is a bar graph showing fluorescence activation of DFHO by Squash and its precursors. Fluorescence was measured with 200 nM dye and 10 μM RNA (ex: 495 nm, em: 562 nm, except for Corn; ex: 505 nm, em: 545 nm). […] FIG. 6B is a bar graph showing fluorescence of initial hits after Round 7 of SELEX. In vitro transcribed RNAs from each hit (1 μM final) were mixed with DFHBI-1T (10 μM final) and the fluorescence was measured (ex: 452 nm, em: 503 nm, except for Broccoli; ex: 472 nm, em: 507 nm). […] FIGS. 6C-6D are bar graphs showing fluorescence measurements of the hits with DFHBI-1T after first (FIG. 6C) and second (FIG. 6D) round of directed evolution, measured as in FIG. 6B. […] FIG. 6E is a bar graph showing fluorescence measurements of hits using DFHO after the second round of directed evolution measured as in FIG. 6A. The fluorescence of the hits were normalized against Corn. […] FIG. 6F is a graph showing normalized fluorescence. […] Fluorescence was measured as in FIG. 6A. […]
molecule,measurement,setting,value
"Squash: fluorogenic RNA aptamer evolved from the add A-riboswitch aptamer, binds DFHBI-1T and DFHO; SEQ ID NO: 12 (SEQ ID NO: 1) (nucleic acid, RNA, backbone not given here) AGGUGAGCCCAAUAAUACGGUUUGGGUUAGGAUAGGAAGUAGAGCCGUAAACUCUCUAAGCG",Fold activation of DFHO fluorescence,,550 fold
same,Activation of DFHO compared to Corn,200 nM dye and 10 μM RNA,> 2 fold
same,Fluorescence intensity with DFHO compared to Corn,"10 μM RNA, 1 μM DFHO",more than two-fold higher
